Test results published in paper PMC4679524.

How the values were obtained:
[1] = target: GST-LE, singly phosphorylated (reacted with CK2, 1 added phosphate) (encephalomyocarditis virus (EMCV)); assay: pull-down
[2] = target: GST-LE, dual phosphorylated (CK2 plus Syk, 2 added phosphates) (encephalomyocarditis virus (EMCV)); assay: pull-down
[3] = target: GST-LE, dual phosphorylated (CK2 plus Syk, 2 added phosphates) (encephalomyocarditis virus (EMCV)); assay: SEC

Chain of GST-LE, dual phosphorylated (CK2 plus Syk, 2 added phosphates) (encephalomyocarditis virus (EMCV)) (P03304 1-67 limits assumed): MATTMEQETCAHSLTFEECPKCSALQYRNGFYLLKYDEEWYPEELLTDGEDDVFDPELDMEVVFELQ
Chain of GST-LE, singly phosphorylated (reacted with CK2, 1 added phosphate) (encephalomyocarditis virus (EMCV)) (P03304 1-67 limits assumed): as above

Question: “rCrm1 (recombinant His-tagged murine Crm1) (from UniProt Q6P5F9 1-1071) (natural protein)” was tested. Which percent stronger rCrm1 signal per unit of GST(-LE) than without phosphate [1] did it give?
Answer: The percent stronger rCrm1 signal per unit of GST(-LE) than without phosphate was 50 to 70%.

Question: And the percent stronger rCrm1 signal per unit of GST(-LE) than without phosphate [2]?
Answer: Its percent stronger rCrm1 signal per unit of GST(-LE) than without phosphate is 50 to 70%.

Question: And the stoichiometry N [3]?
Answer: The stoichiometry N was 1.
